The text below walks through data of PMC10958117, “G-site residue S67 is involved in the fungicide-degrading activity of a tau class glutathione S-transferase from Carica papaya” (The Journal of Biological Chemistry, 2024).

Substrate in data set [1]: N[C@@H](CCC(=O)N[C@@H](CS)C(=O)NCC(=O)O)C(=O)O
Description: purified protein, by the assay type. Also noted: GSH conjugation with chloronitrobenzene substrate, absorbance at 340 nm, Km for glutathione. The following applies: pH 7.2; 37.0 °C.

Substrate in the data set “purified protein”: CN(C)C(=S)SSC(=S)N(C)C
Description: purified protein. The format is biochemical, Carica papaya. Conditions: G-site; S67 necessary for activity.

B1: TCpGST (Carica papaya) (protein)
chain: MADEVVLLDFWPSPFGMRIRIALAEKGIHYEYKEENLRNKSPLLLQMNPVHKKIPVLIHNGKPICESLIQIQYIDEVWSDKAPLLPSDPYQRAQARFWADYVDKKMYEAGRRVWTTKGEEQEGAKKEFIEILKTLEGELGEKPYFGGESFGYVDLTFIPFYTWFSVYESFGKMSIEAECPKLFSWVKRCLEKESVSKSLPDQDKVYGFVLELRKALGI
notes: wild-type full-length ORF, C-terminal His6, pET-30a, E. coli BL21(DE3)
Take B1: in data set [1], the Km came out at 30 ± 8.3 µM, the Vmax amounted to 552 µM/min, the kcat is 0.197 ± 0.0169 s⁻¹ and the kcat/Km amounted to 6550 M⁻¹ s⁻¹.

B2: tau class glutathione S-transferase from Carica papaya (TCpGST) (Carica papaya) (protein)
chain: B1 chain
notes: full-length ORF (657 bp), C-terminal His6, pET-30a, E. coli BL21(DE3), Ni-NTA purified
For the protein B2, the Km in the data set “purified protein” is 148.4 ± 7 µM.
